Measured values taken from the supplement of paper PMC7877785.
± gives the uncertainty stated by the source.

Assay: self-splicing fitness, log relative to wild type (ln ratio); higher = more splicing; Tetrahymena group I intron in knt gene, E. coli kanamycin selection, DiMSum; sequences stand for … in CUCUCU…GGAGGGAAAAGUUAUCAGGCAUGCACCUGGUAGCUAGUCUUUAAACCAAUAGAUUGCAUCGGUUUAAAAGGCAAGACCGUCAAAUUGCGGGAAAGGGGUCAACAGCCGUUCAGUACCAAGUCUCAGGGGAAACUUUGAGAUGGCCUUGCAAAGGGUAUGGUAAUAAGCUGACGGACAUGGUCCUAACCACGCAGCCAAGUCCUAAGUCAACAGAUCUUCUGUUGAUAUGGAUGCAGUUCACAGACUAAAUGUCGGUCGGGGAAGAUGUAUUCUUCUCAUAAGAUAUAGUCGGACCUCUCCUUAAUGGGAGCUAGCGGAUGAAGUGAUGCAACACUGGAGCCGCUGGGAACUAAUUUGUAUGCGAAAGUAUAUUGAUUAGUUUUGGAGUACUCGUGGUCG
In short: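 Colonies from six replicate transformations of E. coli BL21(DE3) were pooled and amplicon-sequenced on an Illumina HiSeq 2500. The library placed an intron with all eight P1ex-region nucleotides randomised inside the knt kanamycin-resistance gene on pET-22b(+), and cells grew overnight at 37°C or 30°C on LB agar with or without 25 μg/mL kanamycin (plus 100 μg/mL carbenicillin, 50 μM IPTG, 0.2% rhamnose). Fitness is the DiMSum error-weighted combination of wild-type-normalised replicate fold changes, kanamycin versus none.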

Sequence	self-splicing fitness (ln) (30 °C)	self-splicing fitness (ln) (37 °C)
AAAAAGCAAUAUUACGCGUA	-1.61 ± 0.083	-0.153 ± 0.08
UUCUAGCAAUAUUACGUUAA	-2.15 ± 0.23	-1.32 ± 0.18
UAGCAGCAAUAUUACGACUC	-0.27 ± 0.091	0.54 ± 0.12
UGCGAGCAAUAUUACGGUAG	-3.36 ± 0.24	-3.01 ± 0.32
GUCUAGCAAUAUUACGCUGU	-0.966 ± 0.09	-0.224 ± 0.094
GCCUAGCAAUAUUACGCGAG	-2.33 ± 0.21	-2.29 ± 0.16
AUGUAGCAAUAUUACGUCGU	-3.28 ± 0.24	-0.241 ± 0.12
CACAAGCAAUAUUACGGAUA	-1.79 ± 0.15	-2.4 ± 0.17
GACAAGCAAUAUUACGGAGC	-2.2 ± 0.09	-1.65 ± 0.13
AUCCAGCAAUAUUACGGUAA	-1.02 ± 0.076	-0.567 ± 0.073
CCAUAGCAAUAUUACGUUAC	-2.14 ± 0.17	-3.54 ± 0.47
CGUGAGCAAUAUUACGUGGC	-3.73 ± 0.37	-3.16 ± 0.4
UGUGAGCAAUAUUACGGCGC	-1.23 ± 0.33	
GUACAGCAAUAUUACGGCAU	-0.301 ± 0.081	-0.278 ± 0.11
CAAAAGCAAUAUUACGCGAG	-2.58 ± 0.098	-1.06 ± 0.078
CUAUAGCAAUAUUACGCUGU	-3.72 ± 0.26	-1.29 ± 0.22
GAACAGCAAUAUUACGCUCG	-0.797 ± 0.1	-0.128 ± 0.15
UACUAGCAAUAUUACGUUGG	-2.61 ± 0.14	-0.807 ± 0.15
CAUAAGCAAUAUUACGCGUC	-3.98 ± 0.26	-2.15 ± 0.2
AUCUAGCAAUAUUACGCCUG	-0.828 ± 0.16	-1.39 ± 0.23
GGUCAGCAAUAUUACGCCUA	-0.826 ± 0.12	-0.243 ± 0.14
CAUAAGCAAUAUUACGGUUU	-4.02 ± 0.19	-2.69 ± 0.17
AACCAGCAAUAUUACGCACG	-0.891 ± 0.055	-0.215 ± 0.078
UUCUAGCAAUAUUACGUACU	-3.29 ± 0.36	-2.97 ± 0.47
ACUUAGCAAUAUUACGGCGG	-1.06 ± 0.087	-0.78 ± 0.096

Sequence	self-splicing fitness (ln) (30 °C)	self-splicing fitness (ln) (37 °C)
UCGAAGCAAUAUUACGCGUG	-0.488 ± 0.07	-0.256 ± 0.078
AUAUAGCAAUAUUACGGUGA	-1.72 ± 0.2	-1.11 ± 0.2
AAACAGCAAUAUUACGCAAC	-3.6 ± 0.29	-1.93 ± 0.17
UGUUAGCAAUAUUACGGUUA	-0.39 ± 0.086	0.504 ± 0.088
UACGAGCAAUAUUACGCGUA		-2.35 ± 0.41
AUGUAGCAAUAUUACGCUGU	-2.92 ± 0.12	-1.12 ± 0.11
AGGAAGCAAUAUUACGCAUU	-3.7 ± 0.35	-2.13 ± 0.26
UCGAAGCAAUAUUACGAAGA	-2.08 ± 0.25	-0.685 ± 0.19
CCGCAGCAAUAUUACGAAUU	-3.73 ± 0.19	-2.51 ± 0.2
GGCUAGCAAUAUUACGACUA	-0.758 ± 0.091	-0.454 ± 0.089
CUCAAGCAAUAUUACGGCAU	-2.66 ± 0.18	-1.58 ± 0.24
GUACAGCAAUAUUACGCCCG	-1.85 ± 0.14	-1.38 ± 0.2
ACGCAGCAAUAUUACGGCCA	-0.646 ± 0.092	0.161 ± 0.12
AUGUAGCAAUAUUACGGUAG	-4.38 ± 0.32	-3.33 ± 0.42
CUUGAGCAAUAUUACGAAUA	-3.26 ± 0.48	
AUUAAGCAAUAUUACGACCU	-0.144 ± 0.17	0.145 ± 0.18
CGUCAGCAAUAUUACGAUAG	-0.505 ± 0.054	-0.11 ± 0.074
CUGAAGCAAUAUUACGACAA	-0.913 ± 0.13	0.0189 ± 0.19
GCUAAGCAAUAUUACGCGCG	-0.427 ± 0.084	-0.075 ± 0.13
CAGCAGCAAUAUUACGCAUG	-3.11 ± 0.16	-2.42 ± 0.16
UGCCAGCAAUAUUACGUGAG	-2.12 ± 0.11	-0.54 ± 0.097
GUCAAGCAAUAUUACGCUAU	-4.05 ± 0.17	-3.81 ± 0.15
CCGGAGCAAUAUUACGCAGG	-3.9 ± 0.27	-2.67 ± 0.23
UUGAAGCAAUAUUACGAAGU	-3.34 ± 0.19	-1.69 ± 0.21
